Results as given in PMC3518760 (Nature, 2012).
Each block holds one molecule with its values, some of them ahead of it.

Experiments:
[1] = target: mouse protocadherin-15 EC1+2 R113G (mouse) (UniProt Q99PJ1); test: ITC
[2] = target: T1, mouse protocadherin-15 EC1+2 (mouse, UniProt Q99PJ1-18 27-259); test: ITC
[3] = target: mouse protocadherin-15 EC1+2 I22A (mouse, UniProt Q99PJ1-18 27-259, I22A); test: ITC
[4] = target: T1, mouse protocadherin-15 EC1+2; test: crystal structure

Molecule: mouse cadherin-23 EC1+2 (from UniProt Q99PF4 24-228) (domain or fragment)
Kd [1]: > 20 µM

B1: mouse cadherin-23 EC1+2 (domain or fragment)
chain: MQVNRLPFFTNHFFDTYLLISEDTPVGSSVTQLLARDMDNDPLVFGVSGEEASRFFAVEPDTGVVWLRQPLDRETKSEFTVEFSVSDHQGVITRKVNIQVGDVNDNAPTFHNQPYSVRIPENTPVGTPIFIVNATDPDLGAGGSVLYSFQPPSPFFAIDSARGIVTVIQELDYEVTQAYQLTVNATDQDKTRPLSTLANLAIIITD
Kd [2]: 2.9 µM
dH [2]: 7.08 kcal/mol
stoichiometry N [2]: 0.88
Kd [3]: > 100 µM

More lines, now with the values ahead:

binding result [4]: binds
B2: mouse cadherin-23 EC1+2 S47P (domain or fragment)
chain: MQVNRLPFFTNHFFDTYLLISEDTPVGSSVTQLLARDMDNDPLVFGVPGEEASRFFAVEPDTGVVWLRQPLDRETKSEFTVEFSVSDHQGVITRKVNIQVGDVNDNAPTFHNQPYSVRIPENTPVGTPIFIVNATDPDLGAGGSVLYSFQPPSPFFAIDSARGIVTVIQELDYEVTQAYQLTVNATDQDKTRPLSTLANLAIIITD

Kd [2]: > 30 µM
B3: mouse cadherin-23 EC1+2 L145G (domain or fragment)
chain: MQVNRLPFFTNHFFDTYLLISEDTPVGSSVTQLLARDMDNDPLVFGVSGEEASRFFAVEPDTGVVWLRQPLDRETKSEFTVEFSVSDHQGVITRKVNIQVGDVNDNAPTFHNQPYSVRIPENTPVGTPIFIVNATDPDLGAGGSVGYSFQPPSPFFAIDSARGIVTVIQELDYEVTQAYQLTVNATDQDKTRPLSTLANLAIIITD
